Drawing on paper PMC9581112, this text covers stoichiometry N for 1 substance.

In the test the target is Pyruvate kinase M2 (PKM2) (human (endogenous in MDA-MB-231 and MCF-7)) (UniProt P14618). Description: native gel or EMSA. In general terms: In EMSA bound probe runs differently from free probe, usually more slowly.

Chain of Pyruvate kinase M2 (PKM2), P14618 1-531 (enzyme; other documents disagree on this pair) (P14618 whole entry): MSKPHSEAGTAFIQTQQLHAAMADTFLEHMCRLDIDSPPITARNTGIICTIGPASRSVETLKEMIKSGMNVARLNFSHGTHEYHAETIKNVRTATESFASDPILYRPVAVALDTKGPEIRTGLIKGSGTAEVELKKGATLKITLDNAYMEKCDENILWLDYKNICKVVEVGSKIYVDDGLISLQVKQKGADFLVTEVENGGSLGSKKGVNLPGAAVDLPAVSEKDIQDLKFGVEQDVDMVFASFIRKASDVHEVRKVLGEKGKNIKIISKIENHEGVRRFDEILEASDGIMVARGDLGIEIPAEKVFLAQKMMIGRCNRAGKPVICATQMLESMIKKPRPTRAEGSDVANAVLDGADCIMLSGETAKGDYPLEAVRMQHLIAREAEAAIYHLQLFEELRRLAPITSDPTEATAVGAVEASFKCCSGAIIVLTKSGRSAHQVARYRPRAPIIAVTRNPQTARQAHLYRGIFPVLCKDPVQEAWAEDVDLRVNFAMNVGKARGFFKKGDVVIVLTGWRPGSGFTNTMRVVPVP

In the case of “Pyruvate kinase M2 (PKM2), P14618 1-531 (enzyme; other documents disagree on this pair)”, the stoichiometry N amounted to 2.

A word on the stoichiometry N: it is the number of molecules, sites or subunits per partner or assembly.
